The target of one experiment is T1, FcγRIIa H (human, UniProt P12318 34-217).
T1 construct: extracellular domain; also called FcgRIIa H; FcγRIIa type H; not shown: His tag attached to the C terminus
T1 sequence (looked up): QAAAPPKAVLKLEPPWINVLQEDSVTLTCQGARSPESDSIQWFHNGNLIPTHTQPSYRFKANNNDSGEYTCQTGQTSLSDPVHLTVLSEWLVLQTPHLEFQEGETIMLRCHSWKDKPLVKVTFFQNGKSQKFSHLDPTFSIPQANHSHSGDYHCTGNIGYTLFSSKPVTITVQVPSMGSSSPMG
Kind of experiment: SPR (Biacore), antibody captured, FcγR as analyte; binding relative to GpH7-A5/GpH7-B3/GpL16-k0 = 100. (In general: Surface plasmon resonance follows binding to a sensor surface in real time, without labels.)

Another experiment addresses T2, FcγRIIb (human, UniProt P31994 43-217).
T2 construct: extracellular domain; also called FcgRIIb; 2b; not shown: His tag attached to the C terminus
T2 sequence (looked up): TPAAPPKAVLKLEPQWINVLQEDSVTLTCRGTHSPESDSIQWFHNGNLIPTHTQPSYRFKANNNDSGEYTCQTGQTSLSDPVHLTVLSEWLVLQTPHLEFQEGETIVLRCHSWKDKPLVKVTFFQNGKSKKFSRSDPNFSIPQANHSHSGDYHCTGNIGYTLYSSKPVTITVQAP
The experiment is described as above.

We go through 14 molecules from patent US20180155451A1 (published 2018).

B1: GpH7-A5/GpH7-B3 variant A330_11K/GpL16-k0 (antibody, human IgG1, kappa)
heavy 1: not shown
heavy 2: not shown
light: DIVMTQSPLSLPVTPGEPASISCQASESLVHSNRNTYLHWYLQKPGQSPQLLIYKVSNRFSGVPDRFSGSGSGTDFTLKISRVEAEDVGVYYCSQNTHVPPTFGQGTKVEIERTVAAPSVFIFPPSDEQLKSGTASVVCLLNNFYPREAKVQWKVDNALQSGNSQESVTEQDSKDSTYSLSSTLTLSKADYEKHKVYACEVTHQGLSSPVTKSFNRGEC
notes: Heterodimerized IgG1, mutation in the GpH7-B3 chain only; also called He Ab
In the experiment with FcγRIIa H, B1 had a He/Con_2aH of 109 control = 100. Further, the He/Con_2b with FcγRIIb is 95 control = 100.

B2: GpH7-A5/GpH7-B3 variant I332_19Q/GpL16-k0 (antibody, human IgG1, kappa)
heavy 1: not shown
heavy 2: not shown
light: DIVMTQSPLSLPVTPGEPASISCQASESLVHSNRNTYLHWYLQKPGQSPQLLIYKVSNRFSGVPDRFSGSGSGTDFTLKISRVEAEDVGVYYCSQNTHVPPTFGQGTKVEIERTVAAPSVFIFPPSDEQLKSGTASVVCLLNNFYPREAKVQWKVDNALQSGNSQESVTEQDSKDSTYSLSSTLTLSKADYEKHKVYACEVTHQGLSSPVTKSFNRGEC
notes: as for B1
In the experiment with FcγRIIa H, B2 registered a He/Con_2aH of 108 control = 100. The molecule further yielded a He/Con_2b with FcγRIIb of 94.3 control = 100.

B3: GpH7-A5/GpH7-B3 variant I332_16H/GpL16-k0 (antibody, human IgG1, kappa)
heavy 1: not shown
heavy 2: not shown
light: DIVMTQSPLSLPVTPGEPASISCQASESLVHSNRNTYLHWYLQKPGQSPQLLIYKVSNRFSGVPDRFSGSGSGTDFTLKISRVEAEDVGVYYCSQNTHVPPTFGQGTKVEIERTVAAPSVFIFPPSDEQLKSGTASVVCLLNNFYPREAKVQWKVDNALQSGNSQESVTEQDSKDSTYSLSSTLTLSKADYEKHKVYACEVTHQGLSSPVTKSFNRGEC
notes: as for B1
Regarding B3, in the experiment with FcγRIIa H, the He/Con_2aH is 109 control = 100. For the same molecule, the He/Con_2b with FcγRIIb was found to be 93 control = 100.

B4: GpH7-A5/GpH7-B3 variant A330_12R/GpL16-k0 (antibody, human IgG1, kappa)
heavy 1: not shown
heavy 2: not shown
light: DIVMTQSPLSLPVTPGEPASISCQASESLVHSNRNTYLHWYLQKPGQSPQLLIYKVSNRFSGVPDRFSGSGSGTDFTLKISRVEAEDVGVYYCSQNTHVPPTFGQGTKVEIERTVAAPSVFIFPPSDEQLKSGTASVVCLLNNFYPREAKVQWKVDNALQSGNSQESVTEQDSKDSTYSLSSTLTLSKADYEKHKVYACEVTHQGLSSPVTKSFNRGEC
notes: as for B1
For B4, the He/Con_2aH with FcγRIIa H is 108 control = 100. The molecule further yielded a He/Con_2b with FcγRIIb of 84.8 control = 100.

B5: GpH7-A5/GpH7-B3 variant I332_03V/GpL16-k0 (antibody, human IgG1, kappa)
heavy 1: not shown
heavy 2: not shown
light: DIVMTQSPLSLPVTPGEPASISCQASESLVHSNRNTYLHWYLQKPGQSPQLLIYKVSNRFSGVPDRFSGSGSGTDFTLKISRVEAEDVGVYYCSQNTHVPPTFGQGTKVEIERTVAAPSVFIFPPSDEQLKSGTASVVCLLNNFYPREAKVQWKVDNALQSGNSQESVTEQDSKDSTYSLSSTLTLSKADYEKHKVYACEVTHQGLSSPVTKSFNRGEC
notes: as for B1
In turn, B5 returned a He/Con_2aH with FcγRIIa H of 105 control = 100. For the same molecule, the He/Con_2b in the experiment with FcγRIIb came out at 80.7 control = 100.

B6: GpH7-A5/GpH7-B3 variant Q295_07I/GpL16-k0 (antibody, human IgG1, kappa)
heavy 1: not shown
heavy 2: not shown
light: DIVMTQSPLSLPVTPGEPASISCQASESLVHSNRNTYLHWYLQKPGQSPQLLIYKVSNRFSGVPDRFSGSGSGTDFTLKISRVEAEDVGVYYCSQNTHVPPTFGQGTKVEIERTVAAPSVFIFPPSDEQLKSGTASVVCLLNNFYPREAKVQWKVDNALQSGNSQESVTEQDSKDSTYSLSSTLTLSKADYEKHKVYACEVTHQGLSSPVTKSFNRGEC
notes: as for B1
B6 yielded a He/Con_2aH in the experiment with FcγRIIa H of 102 control = 100. In the experiment with FcγRIIb, this molecule yielded a He/Con_2b of 84.3 control = 100.

B7: GpH7-A5/GpH7-B3 variant D270_10E/GpL16-k0 (antibody, human IgG1, kappa)
heavy 1: not shown
heavy 2: not shown
light: DIVMTQSPLSLPVTPGEPASISCQASESLVHSNRNTYLHWYLQKPGQSPQLLIYKVSNRFSGVPDRFSGSGSGTDFTLKISRVEAEDVGVYYCSQNTHVPPTFGQGTKVEIERTVAAPSVFIFPPSDEQLKSGTASVVCLLNNFYPREAKVQWKVDNALQSGNSQESVTEQDSKDSTYSLSSTLTLSKADYEKHKVYACEVTHQGLSSPVTKSFNRGEC
notes: as for B1
B7 registered a He/Con_2aH with FcγRIIa H of 102 control = 100. In the experiment with FcγRIIb, this molecule came in with a He/Con_2b of 76.5 control = 100.

B8: GpH7-A5/GpH7-B3 variant K326_12R/GpL16-k0 (antibody, human IgG1, kappa)
heavy 1: not shown
heavy 2: not shown
light: DIVMTQSPLSLPVTPGEPASISCQASESLVHSNRNTYLHWYLQKPGQSPQLLIYKVSNRFSGVPDRFSGSGSGTDFTLKISRVEAEDVGVYYCSQNTHVPPTFGQGTKVEIERTVAAPSVFIFPPSDEQLKSGTASVVCLLNNFYPREAKVQWKVDNALQSGNSQESVTEQDSKDSTYSLSSTLTLSKADYEKHKVYACEVTHQGLSSPVTKSFNRGEC
notes: as for B1
As for B8, in the experiment with FcγRIIa H, the He/Con_2aH stood at 101 control = 100. The same molecule came in with a He/Con_2b in the experiment with FcγRIIb of 89.2 control = 100.

B9: GpH7-A5/GpH7-B3 variant Q295_05P/GpL16-k0 (antibody, human IgG1, kappa)
heavy 1: not shown
heavy 2: not shown
light: DIVMTQSPLSLPVTPGEPASISCQASESLVHSNRNTYLHWYLQKPGQSPQLLIYKVSNRFSGVPDRFSGSGSGTDFTLKISRVEAEDVGVYYCSQNTHVPPTFGQGTKVEIERTVAAPSVFIFPPSDEQLKSGTASVVCLLNNFYPREAKVQWKVDNALQSGNSQESVTEQDSKDSTYSLSSTLTLSKADYEKHKVYACEVTHQGLSSPVTKSFNRGEC
notes: as for B1
Regarding B9, in the experiment with FcγRIIa H, the He/Con_2aH came to 103 control = 100. In the experiment with FcγRIIb, the He/Con_2b was 67.5 control = 100.

B10: GpH7-A5/GpH7-B3 variant A330_19Q/GpL16-k0 (antibody, human IgG1, kappa)
heavy 1: not shown
heavy 2: not shown
light: DIVMTQSPLSLPVTPGEPASISCQASESLVHSNRNTYLHWYLQKPGQSPQLLIYKVSNRFSGVPDRFSGSGSGTDFTLKISRVEAEDVGVYYCSQNTHVPPTFGQGTKVEIERTVAAPSVFIFPPSDEQLKSGTASVVCLLNNFYPREAKVQWKVDNALQSGNSQESVTEQDSKDSTYSLSSTLTLSKADYEKHKVYACEVTHQGLSSPVTKSFNRGEC
notes: as for B1
As to B10, the He/Con_2aH with FcγRIIa H worked out at 102 control = 100. The He/Con_2b with FcγRIIb stood at 90.8 control = 100.

B11: GpH7-A5/GpH7-B3 variant I332_18N/GpL16-k0 (antibody, human IgG1, kappa)
heavy 1: not shown
heavy 2: not shown
light: DIVMTQSPLSLPVTPGEPASISCQASESLVHSNRNTYLHWYLQKPGQSPQLLIYKVSNRFSGVPDRFSGSGSGTDFTLKISRVEAEDVGVYYCSQNTHVPPTFGQGTKVEIERTVAAPSVFIFPPSDEQLKSGTASVVCLLNNFYPREAKVQWKVDNALQSGNSQESVTEQDSKDSTYSLSSTLTLSKADYEKHKVYACEVTHQGLSSPVTKSFNRGEC
notes: as for B1
B11 yielded a He/Con_2aH with FcγRIIa H of 110 control = 100. Further, the He/Con_2b with FcγRIIb worked out at 89.9 control = 100.

B12: GpH7-A5/GpH7-B3 variant A330_16H/GpL16-k0 (antibody, human IgG1, kappa)
heavy 1: not shown
heavy 2: not shown
light: DIVMTQSPLSLPVTPGEPASISCQASESLVHSNRNTYLHWYLQKPGQSPQLLIYKVSNRFSGVPDRFSGSGSGTDFTLKISRVEAEDVGVYYCSQNTHVPPTFGQGTKVEIERTVAAPSVFIFPPSDEQLKSGTASVVCLLNNFYPREAKVQWKVDNALQSGNSQESVTEQDSKDSTYSLSSTLTLSKADYEKHKVYACEVTHQGLSSPVTKSFNRGEC
notes: as for B1
Turning to B12, in the experiment with FcγRIIa H, the He/Con_2aH came to 101 control = 100. In the experiment with FcγRIIb, this molecule registered a He/Con_2b of 87.6 control = 100.

B13: GpH7-A5/GpH7-B3 variant I332_13S/GpL16-k0 (antibody, human IgG1, kappa)
heavy 1: not shown
heavy 2: not shown
light: DIVMTQSPLSLPVTPGEPASISCQASESLVHSNRNTYLHWYLQKPGQSPQLLIYKVSNRFSGVPDRFSGSGSGTDFTLKISRVEAEDVGVYYCSQNTHVPPTFGQGTKVEIERTVAAPSVFIFPPSDEQLKSGTASVVCLLNNFYPREAKVQWKVDNALQSGNSQESVTEQDSKDSTYSLSSTLTLSKADYEKHKVYACEVTHQGLSSPVTKSFNRGEC
notes: as for B1
As to B13, the He/Con_2aH with FcγRIIa H was 110 control = 100. The molecule further displayed a He/Con_2b in the experiment with FcγRIIb of 98.4 control = 100.

B14: GpH7-A5/GpH7-B3 variant H268_04F/GpL16-k0 (antibody, human IgG1, kappa)
heavy 1: not shown
heavy 2: not shown
light: DIVMTQSPLSLPVTPGEPASISCQASESLVHSNRNTYLHWYLQKPGQSPQLLIYKVSNRFSGVPDRFSGSGSGTDFTLKISRVEAEDVGVYYCSQNTHVPPTFGQGTKVEIERTVAAPSVFIFPPSDEQLKSGTASVVCLLNNFYPREAKVQWKVDNALQSGNSQESVTEQDSKDSTYSLSSTLTLSKADYEKHKVYACEVTHQGLSSPVTKSFNRGEC
notes: as for B1
In the experiment with FcγRIIa H, B14 had a He/Con_2aH of 111 control = 100. The molecule also showed a He/Con_2b in the experiment with FcγRIIb of 89.6 control = 100.
